Test results from US20130337438A1 (JAPAN HEALTH SCIENCES FOUNDATION, published 2013).

Experiments:
HPV35 L1/L2-capsid = target: T1, HPV35 L1/L2-capsid (human papillomavirus type 35, UniProt P27234 1-469; P27232 1-502); test: ELISA on immobilized L1/L2-capsid
T1 construct: Capsid of co-expressed L1 and L2 from 293FT cells; The pseudovirus is the same capsid with a reporter plasmid; also called L1/L2-capsid of type 35; HPV35 pseudovirus
T1 sequence 1: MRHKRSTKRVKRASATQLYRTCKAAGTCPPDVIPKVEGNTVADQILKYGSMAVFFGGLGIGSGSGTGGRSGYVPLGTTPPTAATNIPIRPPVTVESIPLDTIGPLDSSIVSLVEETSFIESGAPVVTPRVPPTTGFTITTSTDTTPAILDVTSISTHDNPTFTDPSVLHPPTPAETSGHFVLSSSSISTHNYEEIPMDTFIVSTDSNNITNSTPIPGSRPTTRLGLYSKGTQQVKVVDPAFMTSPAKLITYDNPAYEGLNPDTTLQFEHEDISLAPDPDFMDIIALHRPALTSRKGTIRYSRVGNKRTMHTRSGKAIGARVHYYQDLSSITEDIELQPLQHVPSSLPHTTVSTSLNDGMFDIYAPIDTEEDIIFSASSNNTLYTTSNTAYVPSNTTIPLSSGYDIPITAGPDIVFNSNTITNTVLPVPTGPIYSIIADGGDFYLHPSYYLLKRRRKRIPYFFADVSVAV
T1 sequence 2: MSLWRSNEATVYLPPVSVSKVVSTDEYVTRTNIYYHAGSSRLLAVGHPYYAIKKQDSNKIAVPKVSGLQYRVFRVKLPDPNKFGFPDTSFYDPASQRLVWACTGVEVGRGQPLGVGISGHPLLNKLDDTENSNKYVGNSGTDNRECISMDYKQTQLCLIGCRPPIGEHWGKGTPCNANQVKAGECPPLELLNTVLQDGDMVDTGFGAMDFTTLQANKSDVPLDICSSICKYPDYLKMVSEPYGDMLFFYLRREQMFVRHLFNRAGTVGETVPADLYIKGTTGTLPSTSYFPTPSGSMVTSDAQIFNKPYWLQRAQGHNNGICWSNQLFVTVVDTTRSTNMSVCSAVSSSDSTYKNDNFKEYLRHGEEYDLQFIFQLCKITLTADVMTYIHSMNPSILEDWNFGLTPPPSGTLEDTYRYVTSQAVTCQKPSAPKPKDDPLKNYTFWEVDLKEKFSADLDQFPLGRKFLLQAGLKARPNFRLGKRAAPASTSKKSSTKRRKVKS

HPV33 L1/L2-capsid = target: T2, HPV33 L1/L2-capsid (human papillomavirus type 33, UniProt P06418 1-467; P06416 1-499); test: ELISA on immobilized L1/L2-capsid, purified antibody 250 ng/well
T2 construct: Capsid of co-expressed L1 and L2 from 293FT cells; The pseudovirus is the same capsid with a reporter plasmid; also called L1/L2-capsid of type 33; HPV33 pseudovirus
T2 sequence 1: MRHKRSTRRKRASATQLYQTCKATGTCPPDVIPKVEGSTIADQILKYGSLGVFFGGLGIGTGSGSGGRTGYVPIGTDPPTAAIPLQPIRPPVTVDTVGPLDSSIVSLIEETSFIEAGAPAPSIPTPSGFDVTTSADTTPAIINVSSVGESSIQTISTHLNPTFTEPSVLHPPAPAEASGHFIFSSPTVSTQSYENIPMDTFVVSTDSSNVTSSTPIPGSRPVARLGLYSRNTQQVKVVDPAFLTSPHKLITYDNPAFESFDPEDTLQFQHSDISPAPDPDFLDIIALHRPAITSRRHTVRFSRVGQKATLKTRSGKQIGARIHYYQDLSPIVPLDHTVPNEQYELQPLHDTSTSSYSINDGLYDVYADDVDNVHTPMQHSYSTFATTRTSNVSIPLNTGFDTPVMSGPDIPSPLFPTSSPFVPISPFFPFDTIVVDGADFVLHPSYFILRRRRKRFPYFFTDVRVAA
T2 sequence 2: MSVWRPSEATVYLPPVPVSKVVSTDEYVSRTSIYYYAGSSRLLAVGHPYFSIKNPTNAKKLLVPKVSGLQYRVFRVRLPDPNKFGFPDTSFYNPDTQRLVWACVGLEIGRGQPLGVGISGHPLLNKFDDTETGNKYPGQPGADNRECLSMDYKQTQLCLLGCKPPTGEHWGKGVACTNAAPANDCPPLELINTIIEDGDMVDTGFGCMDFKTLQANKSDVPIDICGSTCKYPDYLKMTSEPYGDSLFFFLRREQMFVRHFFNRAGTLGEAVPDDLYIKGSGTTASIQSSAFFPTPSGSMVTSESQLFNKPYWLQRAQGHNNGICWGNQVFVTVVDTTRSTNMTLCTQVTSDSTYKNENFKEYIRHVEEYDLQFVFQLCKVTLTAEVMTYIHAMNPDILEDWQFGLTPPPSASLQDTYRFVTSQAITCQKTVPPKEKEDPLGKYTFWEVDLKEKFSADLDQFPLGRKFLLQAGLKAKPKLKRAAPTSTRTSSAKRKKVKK

B1: monoclonal antibody 13B (antibody, V domains shown)
VH: DVQLQESGPGLVKPSQSLSLSCTVTGYSITSDSAWNWIRQFPGNKLEWMGYITFSGSTNYNPSLKSRLSITRDTSKNQFFLQLNSVTTEDTATYYCTGPFLDYWGQGTTLTVSS
VL: DVVMTQTPLSLPVSLGDQATISCRSSLSLVLSNRITYLQWYLQKPGQSPKLLIYKVSNRFSGVPDRFSGSGSGTDFTLKISRVEAEDLGVYFCSQSSHFPWTFGGGTKLEIKR
notes: Used as mouse ascites or as antibody purified from ascites; also called Mouse-Mouse hybridoma 13B (FERM BP-11304)
binding result (HPV35 L1/L2-capsid): no binding (tested: ascites diluted 1:100) | binding result (HPV33 L1/L2-capsid): binds
